Data taken from article PMC3145769.

What was measured:
Assay in all cases: co-IP; anti-Flag M2 affinity gel on extracts of NIH3T3 cells transfected with 3xFlag Cyclin A2 alleles; endogenous partners detected by Western blot; densitometry (ImageQuantTL) normalised to immunoprecipitated Cyclin A2, percent of WT; repeated 5 times
[1] = molecular target: Cyclin A2 K256A, C-terminally fused to 3 Flag tags (mouse) (UniProt P51943)
[2] = molecular target: Cyclin A2 D171A, C-terminally fused to 3 Flag tags (mouse) (UniProt P51943)
[3] = molecular target: Cyclin A2 Double (W207L, E210Q), C-terminally fused to 3 Flag tags (mouse) (UniProt P51943)
[4] = molecular target: Cyclin A2 E180A, C-terminally fused to 3 Flag tags (mouse) (UniProt P51943)
[5] = molecular target: Cyclin A2 E210Q, C-terminally fused to 3 Flag tags (mouse) (UniProt P51943)
[6] = molecular target: Cyclin A2 E285A, C-terminally fused to 3 Flag tags (mouse) (UniProt P51943)
[7] = molecular target: Cyclin A2 L204A, C-terminally fused to 3 Flag tags (mouse) (UniProt P51943)
[8] = molecular target: Cyclin A2 L282R, C-terminally fused to 3 Flag tags (mouse) (UniProt P51943)
[9] = molecular target: Cyclin A2 M200A, C-terminally fused to 3 Flag tags (mouse) (UniProt P51943)
[10] = molecular target: Cyclin A2 W207A, C-terminally fused to 3 Flag tags (mouse) (UniProt P51943)
[11] = molecular target: Cyclin A2 WT, C-terminally fused to 3 Flag tags (mouse) (UniProt P51943)
Chain of Cyclin A2 WT, C-terminally fused to 3 Flag tags (mouse) (P51943 whole entry, the tested form may be a part): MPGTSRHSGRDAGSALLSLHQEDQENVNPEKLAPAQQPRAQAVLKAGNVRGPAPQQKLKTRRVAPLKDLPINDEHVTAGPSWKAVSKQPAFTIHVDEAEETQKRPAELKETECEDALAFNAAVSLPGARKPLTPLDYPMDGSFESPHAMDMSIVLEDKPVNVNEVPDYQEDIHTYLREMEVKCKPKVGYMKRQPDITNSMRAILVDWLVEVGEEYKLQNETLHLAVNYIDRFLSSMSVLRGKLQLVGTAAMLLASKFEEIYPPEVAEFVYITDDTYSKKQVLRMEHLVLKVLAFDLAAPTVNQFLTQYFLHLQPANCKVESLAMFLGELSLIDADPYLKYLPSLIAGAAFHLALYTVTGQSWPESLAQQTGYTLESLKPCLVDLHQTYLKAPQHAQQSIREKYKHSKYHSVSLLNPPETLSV

Chain of Cyclin A2 K256A, C-terminally fused to 3 Flag tags (mouse) (P51943 whole entry K256A, the tested form may be a part): as the sequence (P51943 whole entry, the tested form may be a part) above, with K256A counted along it
Chain of Cyclin A2 D171A, C-terminally fused to 3 Flag tags (mouse) (P51943 whole entry D171A, the tested form may be a part): as the sequence (P51943 whole entry, the tested form may be a part) above, with D171A counted along it
Chain of Cyclin A2 W207A, C-terminally fused to 3 Flag tags (mouse) (P51943 whole entry W207A, the tested form may be a part): as the sequence (P51943 whole entry, the tested form may be a part) above, with W207A counted along it
Chain of Cyclin A2 E180A, C-terminally fused to 3 Flag tags (mouse) (P51943 whole entry E180A, the tested form may be a part): as the sequence (P51943 whole entry, the tested form may be a part) above, with E180A counted along it
Chain of Cyclin A2 L282R, C-terminally fused to 3 Flag tags (mouse) (P51943 whole entry L282R, the tested form may be a part): as the sequence (P51943 whole entry, the tested form may be a part) above, with L282R counted along it
Chain of Cyclin A2 M200A, C-terminally fused to 3 Flag tags (mouse) (P51943 whole entry M200A, the tested form may be a part): as the sequence (P51943 whole entry, the tested form may be a part) above, with M200A counted along it
Chain of Cyclin A2 Double (W207L, E210Q), C-terminally fused to 3 Flag tags (mouse) (P51943 whole entry W207L/E210Q, the tested form may be a part): as the sequence (P51943 whole entry, the tested form may be a part) above, with W207L, E210Q counted along it
Chain of Cyclin A2 E210Q, C-terminally fused to 3 Flag tags (mouse) (P51943 whole entry E210Q, the tested form may be a part): as the sequence (P51943 whole entry, the tested form may be a part) above, with E210Q counted along it
Chain of Cyclin A2 L204A, C-terminally fused to 3 Flag tags (mouse) (P51943 whole entry L204A, the tested form may be a part): as the sequence (P51943 whole entry, the tested form may be a part) above, with L204A counted along it
Chain of Cyclin A2 E285A, C-terminally fused to 3 Flag tags (mouse) (P51943 whole entry E285A, the tested form may be a part): as the sequence (P51943 whole entry, the tested form may be a part) above, with E285A counted along it

percent co-precipitated relative to WT [1] | percent co-precipitated relative to WT [2] | percent co-precipitated relative to WT [3] | percent co-precipitated relative to WT [4] | percent co-precipitated relative to WT [5] | percent co-precipitated relative to WT [6] | percent co-precipitated relative to WT [7] | percent co-precipitated relative to WT [8] | percent co-precipitated relative to WT [9] | percent co-precipitated relative to WT [10] | percent co-precipitated relative to WT [11] | Substance
68.2% |  |  |  |  |  |  |  |  |  |  | CDK2 (endogenous, NIH3T3) (from UniProt P97377 1-346)
 | 100% | 66.4% | 17.7% | 99.6% | 41.7% | 72.4% | 81.5% | 86.4% | 1.2% | 100% | CDK2 (endogenous, NIH3T3) (from UniProt P97377 1-346) (enzyme)
